Source: patent US20030040612A1 (MOUNT SINAI SCHOOL OF MEDICINE, published 2003)

Tests used:
[1] = target: SNT-1 PTB domain (residues 11-140 of SEQ ID NO:1) (human) (UniProt Q8WU20); test: method not stated
[2] = target: T1, SNT-1 PTB domain (residues 11-140 of SEQ ID NO:1) (human, UniProt Q8WU20 11-140); test: isothermal titration calorimetry (ITC)
T1 construct: Recombinant from E. coli, isotope labelled for NMR; His6 tag cleaved with thrombin; Used in NMR and ITC; also called PTB Domain of SNT-1; SNT PTB domain
T1 sequence: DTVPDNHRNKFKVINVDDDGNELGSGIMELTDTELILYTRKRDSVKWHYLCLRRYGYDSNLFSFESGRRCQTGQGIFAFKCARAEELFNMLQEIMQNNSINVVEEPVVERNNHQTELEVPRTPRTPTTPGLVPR

[3] = target: T2, juxtamembrane region of hFGFR1 as GAL4 DNA binding domain (BD) fusion protein, wild type (called hFGFR1 (human); SEQ ID NO:2 is …); test: yeast two-hybrid, colony growth on His-, Leu-, Trp- medium
T2 construct: Yeast two-hybrid construct; also called wild type hFGFR1
Protocol: Mutagenesis and Yeast Two-Hybrid Binding Assays: The yeast two-hybrid binding studies of the SNT-1 PTB domain binding to hFGFR1 or tyrosine-phosphorylated TRK were performed as described previously [Xu et al., J. Biol. Chem. 273:17987-17990 (1998)]. Briefly, SNT-1 cDNA fragments were cloned into the pACT2 expression vector (Clontech) for expression as GAL4 DNA activation domain (AD) fusion proteins followed by C-terminal AU1-epitope tags. The juxtamembrane region of hFGFR1 was cloned into the pAS2-1 expression vector (Clontech) for expression as a GAL4 DNA binding domain (BD) fusion protein. This plasmid served as a template for site-directed mutagenesis of hFGFR1 using the QuikChange kit (Stratagene). DNA sequencing confirmed the mutations. AD and BD plasmids were co-transformed into Saccharomyces cerevisiae strain pJ69-4A and plated onto selective media. The synthetic medium lacking the amino acids Leu and Trp (Leu⁻, Trp⁻) selected for plasmid uptake. […] Levels of protein interaction were scored by relative colony growth on these plates. […] Similarly, expression of wild type and mutant hFGFR1 was detected by immunoprecipitation with a rabbit polyclonal antibody specific for BD (Santa Cruz Biotech) and western blotting with mouse monoclonal anti-BD antibody (Santa Cruz Biotech).

## tyrosine-phosphorylated peptide LVIAGNPApYRS (SEQ ID NO:4)
[1]
  Kd: 1 µM
  fold higher affinity than for the FGFR derived peptide of SEQ ID NO:3: 10 fold

B1: hFGFR1 peptide, 22-residue peptide derived from the juxtamembrane region of hFGFR1 (residues 409-430 of SEQ ID NO:2), HSQMAVHKLAKSIPLRRQVTVS (SEQ ID NO:3) (peptide)
peptide: HSQMAVHKLAKSIPLRRQVTVS
notes: Synthetic peptide, not phosphorylated; also called FGFR peptide; FGF receptor peptide
[2]
  Kd: ~10 µM

B2: truncated SNT-1 PTB domain lacking the β8 region (residues 2-111), GAL4 AD fusion (other, not shown: large carriers; small tags and cut ends)
chain: GSCCSCPDKDTVPDNHRNKFKVINVDDDGNELGSGIMELTDTELILYTRKRDSVKWHYLCLRRYGYDSNLFSFESGRRCQTGQGIFAFKCARAEELFNMLQEIMQNNSIN
notes: Yeast two-hybrid construct; also called SNT-1 PTB domain protein lacking the β8 strand
[3]
  binding result: no binding
